# According to the MegaScale stability set (Tsuboyama et al. 2023):
# B1: 6NMW (parent)
# chain: QGDIVVALYPYDGIHPDDLSFKKGEKMKVLEEHGEWWKAKSLLTKKEGFIPSNYVAKLN
# Variants of: B1
# Assay: folding stability dG (cDNA display proteolysis); higher = more stable
# Conditions: PBS, room temperature
row,Variant,folding stability dG [kcal/mol]
1,K45A,3.94
2,W36I,3.52
3,W36D,0.269
4,W36M,3.29
5,W36F,3.29
6,W36S,2.15
7,W36Y,3.49
8,W36G,0.695
9,W36C,3.06
10,W36T,2.87
11,W36R,4.45
12,W36P,1.14
13,W36K,3.49
14,W36N,2.13
15,W36E,1.14
16,W36A,1.68
17,W36L,2.85
18,W36Q,2.51
19,W36V,3.3
20,W36H,2.3
21,A39F,-0.401
22,A39V,4.31
23,A39Y,-0.228
24,A39W,-0.54

row,Variant,folding stability dG [kcal/mol]
1,A39G,1.44
2,A39T,1.32
3,A39S,0.729
4,A39L,1.97
5,A39M,1.64
6,A39C,4.07
7,A39I,1.95
8,K40A,3
9,K40I,3.96
10,K40Y,3.79
11,K40W,3.24
12,K40S,2.8
13,K40Q,3.88
14,K40G,1.1
15,K40T,2.76
16,K40N,1.04
17,K40F,3.63
18,K40R,4.32
19,K40E,2.86
20,K40C,3.71
21,K40L,3.84
22,K40M,4.1
23,K40V,4.24
24,L43F,3.03

row,Variant,folding stability dG [kcal/mol]
1,L43M,3.25
2,L43G,2.02
3,L43V,3.56
4,L43W,4.56
5,L43I,3.26
6,L43N,2.4
7,L43E,3.22
8,L43R,3.66
9,L43Q,2.88
10,L43A,3.2
11,L43D,3.14
12,L43P,0.475
13,L43H,3.1
14,L43S,3.38
15,L43K,3.17
16,L43Y,3.26
17,L43C,3.7
18,W37K,3.8
19,W37P,1.7
20,W37T,2.67
21,W37I,3.96
22,W37A,2.24
23,W37F,4.79
24,W37C,3.04

row,Variant,folding stability dG [kcal/mol]
1,W37D,0.168
2,W37Q,1.99
3,W37H,2.59
4,W37G,-0.016
5,W37V,3.04
6,W37R,2.28
7,W37M,4.7
8,W37E,-0.118
9,W37N,1.19
10,W37S,2.26
11,S41K,1.64
12,S41H,2.95
13,S41C,1.48
14,S41M,1.38
15,S41L,1.15
16,S41G,-0.006
17,S41D,0.362
18,S41F,-0.464
19,S41V,1.06
20,S41N,1.9
21,S41E,-0.037
22,S41A,1.22
23,S41R,0.201
24,S41W,0.288

row,Variant,folding stability dG [kcal/mol]
1,S41Q,0.463
2,S41Y,0.369
3,S41I,1.28
4,S41T,0.669
5,L42I,2.51
6,L42R,0.165
7,L42F,2.83
8,L42H,1.02
9,L42W,1.06
10,L42Y,2.14
11,L42G,-0.156
12,L42A,0.615
13,L42E,1.82
14,L42T,1.47
15,L42D,0.832
16,L42P,-0.897
17,L42V,1.88
18,L42K,0.463
19,L42S,0.699
20,L42C,4.16
21,L42Q,1.32
22,L42N,0.819
23,L42M,3.09
24,K38V,3.34

row,Variant,folding stability dG [kcal/mol]
1,K38G,0.033
2,K38I,3.44
3,K38Q,2.39
4,K38N,1.45
5,K38H,2.92
6,K38E,1.49
7,K38T,2.18
8,K38A,1.72
9,K38M,3.87
10,K38S,1.83
11,K38R,4.06
12,K38C,3.63
13,K38P,0.337
14,K38F,4.92
15,E35L,4.23
16,E35W,4.11
17,E35N,4.01
18,E35S,3.82
19,E35M,4.06
20,E35K,3.94
21,E35R,3.59
22,E35Y,4.96
23,E35H,4.61
24,E35Q,3.92

row,Variant,folding stability dG [kcal/mol]
1,E35G,3.14
2,E35I,3.97
3,E35P,3.64
4,E35V,3.94
5,E35T,3.73
6,T44K,0.416
7,T44G,0.839
8,T44C,0.909
9,T44H,0.98
10,T44S,3.08
11,T44L,0.417
12,T44N,2.06
13,T44Y,0.599
14,T44D,1.14
15,T44Q,1.26
16,T44F,0.599
17,T44V,0.057
18,T44W,0.672
19,T44E,0.228
20,T44A,0.515
21,T44M,0.443
22,T44R,0.922
23,T44I,-0.332
